In article PMC4751364, “Mitotic Activation of a Novel Histone Deacetylase 3-Linker Histone H1.3 Protein Complex by Protein Kinase CK2*” (The Journal of Biological Chemistry, 2015):

Molecular target: T1, Human recombinant HDAC3 (human, UniProt O15379 1-428)
T1 construct: human recombinant HDAC3 (Biomol); No catalogue number, host or tag is printed for the bought protein; also called recombinant human HDAC3; source: bought: Biomol
Assay: pull-down; recombinant HDAC3 (8 ug) incubated with recombinant H1.3 (4 ug), overnight at 4 C; pulled down with anti-HDAC3 antibody and protein A/G-agarose; SDS-PAGE, Coomassie staining
Details: both partners purified

T1 sequence (O15379 whole entry): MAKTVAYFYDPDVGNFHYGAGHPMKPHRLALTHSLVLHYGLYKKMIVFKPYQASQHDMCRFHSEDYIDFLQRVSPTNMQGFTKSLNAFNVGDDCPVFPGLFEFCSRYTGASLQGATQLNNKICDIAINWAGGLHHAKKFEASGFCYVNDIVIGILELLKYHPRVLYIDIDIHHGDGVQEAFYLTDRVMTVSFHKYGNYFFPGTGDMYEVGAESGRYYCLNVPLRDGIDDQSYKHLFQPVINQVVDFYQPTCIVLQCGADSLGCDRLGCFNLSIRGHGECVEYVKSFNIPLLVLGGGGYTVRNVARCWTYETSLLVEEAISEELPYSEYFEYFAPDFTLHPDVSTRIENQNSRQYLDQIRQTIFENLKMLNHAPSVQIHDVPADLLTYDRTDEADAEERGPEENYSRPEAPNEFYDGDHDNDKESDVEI

B1: Human recombinant H1.3 (natural protein, UniProt P16402 1-221, looked up)
chain: MSETAPLAPTIPAPAEKTPVKKKAKKAGATAGKRKASGPPVSELITKAVAASKERSGVSLAALKKALAAAGYDVEKNNSRIKLGLKSLVSKGTLVQTKGTGASGSFKLNKKAASGEGKPKAKKAGAAKPRKPAGAAKKPKKVAGAATPKKSIKKTPKKVKKPATAAGTKKVAKSAKKVKTPQPKKAAKSPAKAKAPKPKAAKPKSGKPKVTKAKKAAPKKK
notes: human recombinant histone H1.3 (Alexis Biochemicals); No catalogue number, host or tag is printed for the bought protein; also called recombinant human histone H1.3; source: bought: Alexis Biochemicals
binding result: binds
